# Patent US20200299408A1 (Genentech, published 2020)
# Where a chain is given by its changes, count along the chain named.
# T1: single chain human CD3ε-26mer-CD3γ (CD3εγ) (human)
# T1 construct: also called human CD3εγ
# T1 chain: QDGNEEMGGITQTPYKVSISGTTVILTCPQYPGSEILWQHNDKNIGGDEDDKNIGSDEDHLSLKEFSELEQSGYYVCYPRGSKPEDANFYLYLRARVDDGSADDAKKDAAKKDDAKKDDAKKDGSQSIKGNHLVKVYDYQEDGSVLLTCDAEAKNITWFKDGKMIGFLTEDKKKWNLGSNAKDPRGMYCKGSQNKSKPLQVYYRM
# B1: 38E4v2 Fab (Fab, V domains shown)
# VH: EVQLVQSGAEVKKPGASVKVSCKASGFTFTSYYIHWVRQAPGQGLEWIGWIYPENDNTKYNEKFKDRVTITADTSTSTAYLELSSLRSEDTAVYYCARDAYSRYYFDYWGQGTLVTVSS
# VL: DIVMTQSPDSLAVSLGERATINCKSSQSLLNSRTRKNYLAWYQQKPGQSPKLLIYWTSTRKSGVPDRFSGSGSGTDFTLTISSLQAEDVAVYYCKQSFILRTFGQGTKVEIK
# B2: 38E4v3 Fab (Fab, V domains shown)
# VH: B1 VH with A100G
# VL: B1 VL with I99A
# B3: 38E4v4 Fab (Fab, V domains shown)
# VH: B1 VH with A100G
# VL: B1 VL with Q96A
# B4: 38E4v5 Fab (Fab, V domains shown)
# VH: B1 VH with A100G
# VL: B1 VL with F98A
# B5: 38E4v6 Fab (Fab, V domains shown)
# VH: B1 VH with D99T, A100G
# VL: B1 VL
# B6: 38E4v7 Fab (Fab, V domains shown)
# VH: B1 VH with A100G, Y105A
# VL: B1 VL
# B7: 38E4v8 Fab (Fab, V domains shown)
# VH: B1 VH with D99S, A100G
# VL: B1 VL
# B8: 38E4v9 Fab (Fab, V domains shown)
# VH: B1 VH with A100G, Y104A
# VL: B1 VL
# B9: 40G5c Fab (Fab, V domains shown)
# VH: B1 VH with F27Y, S31N, E54G, N55D, D56G, D66G, V68A, I70L, A100S, R103N
# VL: B1 VL with S49P, T57A, K61E, K95T
# B10: 127B3 (antibody, IgG3, V domains shown)
# VH: QVQLQQSGSELVRPGASLKLSCKASGYTFTSYWMHWVRQRPGQGLEWIGNFYPGDLTVNYDEKFKNKVTLAVDTSSSTAFLQLSSLTSEDSAVYYCTRDAYSRYFFDYWGQGTTLTVSS
# VL: DIVMTQSPSSLAVSAGEKVTMSCKSSQSLLNSRTRKNYLAWYQQKPGQSPKLLIYWASTRESGVPDRFTGSGSGTDFTLTISSVQTEDLAVYYCCQSFILRTFGGGTKLEIK
# notes: mouse hybridoma clone
# B11: 79B7 (antibody, IgG3, V domains shown)
# VH: B10 VH with F51S, T57N
# VL: B10 VL
# notes: mouse hybridoma clone
# B12: 40D2 (antibody, IgG2b, V domains shown)
# VH: QVQLQQSGPELVKPGASLKISCKASGYSFANYYTHWVRQRPGQGLEWIGWLYPGNGDTRYNEKFKDKATLTADTSSNTASMQLNSLTSEDSAVYYCTRDSYGNYFFDYWGQGTTLIVSS
# VL: B10 VL with Y55F, T86A, C95K, I111L
# notes: mouse hybridoma clone
# B13: 95A2 (antibody, IgG3, V domains shown)
# VH: QVQLQQSGPEMVKPGASVTISCKTSGFTFTSYYIHWMMQRPGQGLEWIGWLYPGDVSTRYNEKFRDKATLTADKSSTTAYLYLSSLTSEDSAVYFCARDSSASYYFDFWGQGTTLTVSS
# VL: B10 VL with K18M, M21L, S22H, S32I, Q43L, K51R, E61A, T86P, C95T, I111L
# notes: mouse hybridoma clone
# B14: 118G9 (antibody, IgG3, V domains shown)
# VH: QVQLQQPGSELVRPGASVTLSCTASGYSFTSYWMHWVKQRPGQGLEWVGNIYPGGEIINYAEKFKTKGTLTVDISSSTAYMHLSSLTSDDSAVYYCTRDTTGNYFFDYWGQGTTLTVSS
# VL: B10 VL with Q48L, D66E, C95T, K108R
# notes: mouse hybridoma clone
# B15: 39B7 (antibody, IgG2b, V domains shown)
# VH: QVQLQQSGPELVKPGTSVKISCKTSGYNFINYYTHWVKQRPGQGLEWIGWIYPGNGNIKYNEKFMGKATLTADTSSTTAHMHLSSLVSEDSAVYYCARDSYGSYYFDYWGQGTTLTVSS
# VL: B10 VL with S22T, T86A, C95K
# notes: mouse hybridoma clone
# B16: 38E4 v2 (antibody, V domains shown)
# VH: B1 VH
# VL: B1 VL
# B17: 38E4 v3 (antibody, V domains shown)
# VH: B1 VH with A100G
# VL: B1 VL with I99A
# B18: 38E4 v4 (antibody, V domains shown)
# VH: B1 VH with A100G
# VL: B1 VL with Q96A
# B19: 38E4 v5 (antibody, V domains shown)
# VH: B1 VH with A100G
# VL: B1 VL with F98A
# B20: 38E4 v6 (antibody, V domains shown)
# VH: B1 VH with D99T, A100G
# VL: B1 VL
# B21: 38E4 v7 (antibody, V domains shown)
# VH: B1 VH with A100G, Y105A
# VL: B1 VL
# B22: 38E4 v8 (antibody, V domains shown)
# VH: B1 VH with D99S, A100G
# VL: B1 VL
# B23: 38E4 v9 (antibody, V domains shown)
# VH: B1 VH with A100G, Y104A
# VL: B1 VL
# Molecular target: T1, single chain human CD3ε-26mer-CD3γ …
# Experiment: Biacore, human CD3εγ on chip, Fab in flow through
# Procedure: Binding affinities for the each of the CD3/CD20 TDBs were tested by Biacore or FACS analysis, as described above for the anti-CD3 antibodies. Briefly, for Biacore binding assays, human CD3εγ was immobilized on Biacore Series S CM5 sensor chip using the amine coupling kit from Biacore and CD3/CD20 TDBs or Fab variants thereof were in the flow through. For FACS binding assays, either Bjab cells (for B cell antigens) or Jurkat cells (for CD3 antigen) were incubated with various concentrations of TDB antibodies at 4° C. for 30 minutes, then cells were washed and incubated with 2nd antibody (anti-huIgG-PE; BD Bioscience) for another 15 minutes, before cells were washed again and ready for FACS analysis.
Binder,Kd [nM],koff [s⁻¹],kon [M⁻¹ s⁻¹]
B1,1.6,0.00359,2.29e+06
B2,3.4,0.014,4.11e+06
B3,10.3,0.00336,325000
B4,11,0.0225,2.05e+06
B5,34.2,0.00175,51100
B6,87,0.0246,283000
B7,180,0.202,1.12e+06
B8,229,0.0166,72600
B9,63.2,0.0253,401000

# Molecular target: CD3 antigen of Figures 3B and 3C (not named)
# Experiment: kinetic table of IgGs; method and antigen not stated
Binder,Kd [nM],koff [s⁻¹],kon [M⁻¹ s⁻¹]
B10,0.744,9.67e-05,130000
B11,0.224,3.41e-05,152000
B12,0.563,0.000111,197000
B13,0.0644,1.87e-05,290000
B14,0.209,3.74e-05,179000
B15,0.331,7.31e-05,220000

# Molecular target: T1, single chain human CD3ε-26mer-CD3γ …
# Experiment: Biacore, human CD3εγ on chip, antibody in flow-through
Binder,Kd [nM],koff [s⁻¹],kon [M⁻¹ s⁻¹]
B16,1.6,0.0036,2.29e+06
B17,3.4,0.014,4.11e+06
B18,10,0.0034,325000
B19,11,0.0225,2.05e+06
B20,34,0.0017,51100
B21,87,0.0246,283000
B22,180,0.202,1.12e+06
B23,229,0.0166,72600
